The values that follow come from patent US20150299277A1, “AGENT FOR TREATING OR PREVENTING SYSTEMIC INFLAMMATORY RESPONSE SYNDROME” (THE UNIVERSITY OF TOKYO, priority 2012, published 2015).

This experiment concerns the target recombinant human histone H4 (human) (UniProt P62805). The experiment is described as follows: cell-based or functional assay.

On to “Escherichia coli-expressed His-tagged N-terminal domain human PTX3 (18-178 amino acids), wild-type (from UniProt P26022 18-178)”, for which the aggregation stoichiometry (protein left after removal of the aggregate, SYPRO Ruby) (mol histone H4 per mol N-terminal domain) came to 2.
